Publication PMC3855555

Assays:
Assay in all cases: pyrophosphate release, enzyme-coupled colorimetric assay
Assay type in all cases: biochemical, Mycolicibacterium smegmatis
Conditions in all cases: 20 mM Tris-HCl pH 7.5, 5 mM MgSO4, 100 mM NaCl, 37°C
[1] = substrate: Nc1nc(O)nc2c1ncn2[C@H]1C[C@H](O)[C@@H](COP(=O)(O)OP(=O)(O)OP(=O)(O)O)O1
[2] = substrate: O=Cc1cn([C@H]2C[C@H](O)[C@@H](COP(=O)(O)OP(=O)(O)OP(=O)(O)O)O2)c(=O)[nH]c1=O
[3] = substrate: Nc1nc(=O)n([C@H]2C[C@H](O)[C@@H](COP(=O)(O)OP(=O)(O)OP(=O)(O)O)O2)cc1O

B1: Msm MazG (Mycolicibacterium smegmatis MC2 155) (protein)
chain: MIVVLVDPRRPALVPVDAVEFLTGDVQYTEEMPVKVPWSLPSARPAYDGEDAPVLLSSDPEHPVVKARLAAGDRLIAAPEPQPGERLVDAVALMDKLRTSGPWESEQTHDSLRRYLLEETYELFDAVRSGNADELREELGDVLLQVLFHARIAEDAPHHPFSIDDVADALVRKLGNRVPAVLAGESISLDEQLAQWEERKAQEKKVKARASSMDDVPTGQPALALAQKVLARVSQAGLPAELIPASLTSVSVSADTDSENELRTAVLEFMDTVREVEAAVAAGRRGEDVPEELDVAPLGVISEDEWRAYWPGAESSASEAEPEE
notes: heterologously expressed, purified to nearly SDS-PAGE homogeneity; strain given for the bacteria, not for the protein
[1]
  Km: 311 µM
[2]
  Km: 434 ± 82 µM
  kcat: 1 s⁻¹
[3]
  Km: 5.6 ± 2.2 µM
  kcat: 0.013 s⁻¹
